Test results reported in patent US20250051465A1 (published 2025).

How the values were obtained:
[1] = molecular target: T1, extracellular domain portion of LEPR protein expressed with a C-terminal human Fc tag (hLEPR.hFc) (human); test: blocking ELISA: 10 nM hLEPR.hFc to coated hLeptin, 500 nM Ab
T1 construct: also called dimeric human LEPR
Experimental: These antibody-protein or protein-protein complexes were then incubated for 1.5 hour at room temperature (RT). […] Samples were developed with a TMB solution (BD Biosciences, #555214; substrate A and B mixed at 1:1 ratio as per manufacturer's instructions) to produce a colorimetric reaction and then neutralized with 1M sulfuric acid before measuring absorbance at 450 nm on a Victor X5 plate reader.
Data analysis was performed using a sigmoidal dose-response model within Prism™ software (GraphPad). […] In the calculation, binding signal of 10 nM of hLEPR.hFc without the presence of the antibody was referenced as 100% binding or 0% blocking; and the baseline signal of buffer alone without the presence of hLEPR.hFc was referenced as 0% binding or 100% blocking.

[2] = molecular target: T2, human LEPR extracellular domain expressed with a C-terminal myc-myc-hexahistidine tag (hLEPR.mmh) (human, UniProt P48357 22-839); test: Luminex, myc-captured full length extracellular domain
T2 construct: also called human LEPR-MMH; monomeric human LEPR
Experimental: Aliquots of microspheres with immobilized anti-myc monoclonal antibodies, prepared as described above, were added individually to 1 mL of the each of these protein supernatants. The microspheres were gently mixed, incubated for two hours at 25° C., washed twice with 1 mL of DBPS, centrifuged to remove the supernatant and finally resuspended in 1 mL of DPBS buffer. Forty-eight μL of anti-myc IgG coupled microspheres from individual reactions with full length human LEPR and with each of the human LEPR domain proteins were withdrawn and mixed together in 3.6 mL of PBS+20 mg/mL BSA+0.05% sodium azide (blocking buffer).
From this mixed pool, 75 μL of microspheres were plated per well on a 96 well filter plate (Millipore, Cat. No: MSBVN1250) and mixed with 25 μL of individual anti-human LEPR monoclonal antibodies (0.5 or 5 µg/mL), incubated for two hours at 25° C. and then washed twice with 200 μL of DPBS with 0.05% Tween 20 (washing buffer). […] After 30 minutes, the samples were washed twice with 200 μL of washing buffer and resuspended in 150 μL of wash buffer. The Median Fluorescence intensity (MFI) of the microspheres was measured in a Luminex Analyzer.

[3] = molecular target: T2, human LEPR extracellular domain …; test: SPR, captured mAb, 25C
Experimental: (§1) Equilibrium dissociation constants (KD values) for LEPR binding to purified anti-LEPR monoclonal antibodies were determined using a real-time surface plasmon resonance biosensor using a Biacore 4000 instrument. All binding studies were performed in 10 mM HEPES, 150 mM NaCl, 3 mM EDTA, and 0.05% v/v Surfactant Tween-20, pH 7.4 (HBS-ET) running buffer at 25° C. and 37° C. The Biacore sensor surface was first derivatized by amine coupling with a monoclonal mouse anti-human Fc antibody (GE, #BR-1008-39) to capture anti-LEPR monoclonal antibodies. […] Kinetic association (kₐ) and dissociation (kd) rate constants were determined by fitting the real-time binding sensorgrams to a 1:1 binding model with mass transport limitation using Scrubber 2.0c curve-fitting software. Binding dissociation equilibrium constants (KD) and dissociative half-lives (t½) were calculated from the kinetic rate constants as: […]

[4] = molecular target: T3, human LEPR extracellular domain expressed with a C-terminal mouse IgG2a Fc tag (hLEPR.mFc) (human); test: SPR, captured mAb, 25C
T3 construct: also called dimeric human LEPR
T3 chain: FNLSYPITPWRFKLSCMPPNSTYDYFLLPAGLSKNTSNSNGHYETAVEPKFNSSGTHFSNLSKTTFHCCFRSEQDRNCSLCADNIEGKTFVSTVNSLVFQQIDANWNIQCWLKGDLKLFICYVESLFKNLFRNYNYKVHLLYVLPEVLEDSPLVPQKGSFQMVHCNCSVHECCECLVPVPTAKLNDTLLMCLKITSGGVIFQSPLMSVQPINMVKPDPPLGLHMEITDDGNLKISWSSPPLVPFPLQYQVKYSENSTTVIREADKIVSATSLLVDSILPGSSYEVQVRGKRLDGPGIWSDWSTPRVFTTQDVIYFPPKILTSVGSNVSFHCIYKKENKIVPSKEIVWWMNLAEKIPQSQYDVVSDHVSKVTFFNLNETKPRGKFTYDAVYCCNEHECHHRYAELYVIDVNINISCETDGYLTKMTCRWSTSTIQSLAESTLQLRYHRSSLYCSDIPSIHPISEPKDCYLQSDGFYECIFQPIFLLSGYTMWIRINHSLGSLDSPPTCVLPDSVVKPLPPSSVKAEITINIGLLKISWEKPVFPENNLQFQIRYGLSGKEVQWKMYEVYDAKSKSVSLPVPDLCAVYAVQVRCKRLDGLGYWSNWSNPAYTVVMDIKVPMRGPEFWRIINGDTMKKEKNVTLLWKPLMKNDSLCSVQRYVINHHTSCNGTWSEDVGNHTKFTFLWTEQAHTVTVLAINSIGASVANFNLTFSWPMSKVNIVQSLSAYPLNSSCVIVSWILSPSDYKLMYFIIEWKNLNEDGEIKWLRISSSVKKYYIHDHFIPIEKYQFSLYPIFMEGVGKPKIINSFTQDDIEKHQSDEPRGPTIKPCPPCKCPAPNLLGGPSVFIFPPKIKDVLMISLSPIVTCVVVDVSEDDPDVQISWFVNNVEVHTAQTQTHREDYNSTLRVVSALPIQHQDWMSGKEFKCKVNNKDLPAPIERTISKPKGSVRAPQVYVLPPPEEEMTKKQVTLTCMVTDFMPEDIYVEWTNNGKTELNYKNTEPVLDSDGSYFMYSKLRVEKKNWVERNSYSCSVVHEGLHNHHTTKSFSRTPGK
Experimental: as §1

[5] = molecular target: T4, Macaca fascicularis LEPR extracellular domain expressed with a C-terminal myc-myc-hexahistidine tag … (Macaca fascicularis, UniProt Q9MYL0 22-837 (rhesus entry)); test: SPR, captured mAb, 25C
T4 construct: also called mfLEP.MMH
Experimental: as §1

B1: H4H18446P2 (antibody, human IgG4, V domains shown)
VH: EVQLVESGGGLVQPGGSLRLSCAASGFTFSNYGMTWVRQAPGKGLEWVSAITGGGGSTYYSNSVKGRFTISRDNSKNTVYLRMNSVRAEDTAVYYCAKYKWNFVDDWGQGTTVTVSS
VL: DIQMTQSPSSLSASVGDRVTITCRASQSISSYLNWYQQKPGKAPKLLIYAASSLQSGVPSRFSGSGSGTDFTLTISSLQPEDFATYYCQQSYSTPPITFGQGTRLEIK
notes: Fully human antibody with human IgG4 Fc (H4H prefix)
% blockade [1]: -5%
MFI [2]: 10500 MFI
100 nM hLEPR-MMH Bound (RU) [3]: 16 RU
Kd [3]: 52.5 nM
koff [3]: 0.000951 s⁻¹
kon [3]: 18100 M⁻¹ s⁻¹
t½ [3]: 12 min
100 nM hLEPR-mFc Bound (RU) [4]: 20 RU
Kd [4]: 6.48 nM
koff [4]: 0.000208 s⁻¹
kon [4]: 32000 M⁻¹ s⁻¹
t½ [4]: 56 min
100 nM mfLEP.MMH Bound (RU) [5]: 23 RU
Kd [5]: 58.3 nM
koff [5]: 0.00112 s⁻¹
kon [5]: 19300 M⁻¹ s⁻¹
t½ [5]: 10 min
